Results published in the supplement of paper PMC9732359.
± gives the uncertainty stated by the source.

Assay: protein stability index of a GFP-peptide fusion (yeast GPS) (PSI 1-4); higher = more stable; sorted into four equal gates, so the index is relative within each strain
Outline: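 Mid-log yeast cultures in leucine-free medium, carrying a pooled plasmid library, were sorted into four equal gates by their GFP/Cherry fluorescence ratio. Each plasmid expressed Cherry along with GFP fused upstream of a tiled 17-residue yeast protein peptide. Plasmids recovered from each gate were PCR-amplified and Illumina-sequenced, with reads assigned to strains by barcodes. The protein stability index was obtained by summing each gate's read frequency weighted by its gate number.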

| Sequence | protein stability index (doa10∆) | protein stability index (pdr5∆) | protein stability index (san1∆) | protein stability index (ubr1∆) |
| --- | --- | --- | --- | --- |
| MSEVITITKRNGAFQNS [RRP4] | 2.33 ± 0.083 | 2.31 ± 0.076 | 2.79 ± 0.067 | 2.18 ± 0.059 |
| SNIDIRVRVTGGGHVSQ [RPS16A] | 2.02 ± 0.093 | 2.31 ± 0.063 | 2.78 ± 0.13 | 2.08 ± 0.044 |
| VAGSKCWAVRADVHFLD [RRP45] | 2.07 ± 0.17 | 2.23 ± 0.14 |  | 2.26 ± 0.22 |
| LGASFGQQQQQSQTNAF [YGL172W/NUP49] | 2.09 ± 0.11 | 2.75 ± 0.075 | 2.07 ± 0.1 | 2.19 ± 0.075 |
| NDILVLMESEREARRLR [RPS28A] | 1.56 ± 0.12 | 2.94 ± 0.079 | 2.08 ± 0.16 | 2.7 ± 0.097 |
| SRSSSKNVNIEDITEPK [ESC2] | 2.92 ± 0.086 | 3 ± 0.082 | 2.67 ± 0.086 | 2.98 ± 0.15 |
| SADAPNPNNVNVQTQYR [RET1] | 2.92 ± 0.09 | 2.84 ± 0.045 | 2.77 ± 0.07 | 2.79 ± 0.05 |
| TRSIKEKWLLNQIPVTE [SRB6] | 1.13 ± 0.1 | 1.34 ± 0.18 | 1.29 ± 0.19 | 1.18 ± 0.17 |
| RSLCEVLVYDDKLEKVT [RPC34] | 2.32 ± 0.09 | 2.62 ± 0.1 | 2.33 ± 0.1 | 2.84 ± 0.093 |
| DLTLDDISLKADLERFF [YJL039C/NUP192] | 3.29 ± 0.053 | 3.35 ± 0.076 | 3.41 ± 0.036 | 3.23 ± 0.039 |
| DDLQSSVIPEVDREAML [YCG1] | 2.63 ± 0.085 | 2.71 ± 0.081 | 2.48 ± 0.12 | 2.4 ± 0.078 |
| LLEISCKQWEISNMLKK [CSI1] | 1.5 ± 0.052 | 1.58 ± 0.048 | 1.75 ± 0.077 | 1.5 ± 0.046 |
| ENKVMLPRCSKEEFRLM [RRI2] | 1.8 ± 0.06 | 2.1 ± 0.076 | 2.06 ± 0.088 | 1.7 ± 0.048 |
| KTANSSSDAFEKLKVNM [YIL149C/MLP2] | 2.46 ± 0.053 | 2.54 ± 0.065 | 2.95 ± 0.065 | 3.02 ± 0.051 |
| LMASVILDSLPSVIHSS [YDL116W/NUP84] | 1.76 ± 0.042 | 1.38 ± 0.039 | 1.34 ± 0.067 | 1.48 ± 0.034 |
| FNYSGKDMLYSGITGEC [RET1] | 2.48 ± 0.075 | 2.46 ± 0.075 | 2.19 ± 0.12 | 2.61 ± 0.06 |
| FSMLQMAFEASAAAAGN [BRR2] |  | 2.26 ± 0.25 | 1.76 ± 0.21 |  |
| PITNKERSLAVKYINFG [RPC31] | 3.02 ± 0.14 | 3.11 ± 0.16 | 2.65 ± 0.084 | 2.48 ± 0.18 |
| DYPDDSGWTPFHIACSV [NAS6] | 3.37 ± 0.11 | 2.28 ± 0.099 | 2.48 ± 0.12 | 2.27 ± 0.29 |
| GCLSVLYQSKGRYMEAL [SRP68] | 2.83 ± 0.13 | 3.04 ± 0.18 | 2.76 ± 0.21 |  |
| IAEIKKTPLLKQYLSAS [RPL6A] | 2.65 ± 0.063 | 2.47 ± 0.065 | 2.31 ± 0.065 | 2.25 ± 0.047 |
| EDIMVHYDNTTRNSLGN [RPO21] | 3.1 ± 0.09 | 3.1 ± 0.095 | 3.35 ± 0.041 | 3.06 ± 0.075 |

| Sequence | protein stability index (doa10∆) | protein stability index (pdr5∆) | protein stability index (san1∆) | protein stability index (ubr1∆) |
| --- | --- | --- | --- | --- |
| PARSSSLRSNVVVAETS [YAR002W/NUP60] | 2.2 ± 0.04 | 2.62 ± 0.04 | 2.19 ± 0.058 | 2.58 ± 0.035 |
| DKLYIHFVQEEPLAFYL [RGR1] | 2.21 ± 0.041 | 2.35 ± 0.045 | 2.4 ± 0.045 | 2.32 ± 0.033 |
| KSLEEQEYAIEMKIGSI [SMC1] | 2.71 ± 0.11 | 3.23 ± 0.18 | 2.67 ± 0.11 | 2.66 ± 0.2 |
| QLLLLSDERAKLELINR [LRP1] | 2.93 ± 0.092 | 3.06 ± 0.18 | 2.99 ± 0.11 | 2.99 ± 0.18 |
| EVAKRLVELMFIRSTNS [FAS1] | 1.79 ± 0.067 | 2.14 ± 0.069 | 2.5 ± 0.085 | 1.49 ± 0.042 |
| GGSTTNNTTTTSTKPSF [YOR098C/NUP1] | 2.79 ± 0.075 | 3.01 ± 0.074 | 2.8 ± 0.072 | 2.75 ± 0.067 |
| KAGLMTGGISGDANNRW [SMC1] | 2.38 ± 0.11 | 2.31 ± 0.088 | 2.54 ± 0.062 | 2.51 ± 0.074 |
| PTRIRTKSSKEFFNTLR [RRI2] | 2.73 ± 0.13 | 3.01 ± 0.15 | 3.06 ± 0.081 | 2.91 ± 0.11 |
| KTSEKSENHTESDAPPK [YOR098C/NUP1] | 2.52 ± 0.13 | 2.75 ± 0.13 | 2.53 ± 0.15 | 2.28 ± 0.21 |
| VRRRFARGMTSKPAGFM [RPS15] | 2.9 ± 0.071 | 2.89 ± 0.077 | 2.94 ± 0.1 | 3.07 ± 0.075 |
| SVREINLYMLVTTCVYL [SSN8] | 2.32 ± 0.057 | 1.67 ± 0.047 | 2.33 ± 0.065 | 1.92 ± 0.047 |
| LQVDVDIAGQRDDALVV [RRP42] | 2.07 ± 0.17 |  |  |  |
| DSKMIQDLSRNTLGKGQ [SNU114] | 3.25 ± 0.098 | 3.34 ± 0.11 | 3.34 ± 0.12 | 3.61 ± 0.14 |
| NVVIDEAVEIPVNSADG [SME1] | 2.97 ± 0.084 | 3.35 ± 0.068 | 3.24 ± 0.041 | 2.98 ± 0.045 |
| QQTEKLNPQVADINKNF [RPN2] | 1.91 ± 0.066 | 2.42 ± 0.058 | 2.44 ± 0.07 | 2.49 ± 0.055 |
| VLQKVIEWAEHHRDSNF [SKP1] | 3.08 ± 0.078 | 3.14 ± 0.063 | 3.04 ± 0.049 | 3.25 ± 0.062 |
| NLTSEIEDLRADINSNR [YOR098C/NUP1] | 2.98 ± 0.27 | 3.07 ± 0.12 | 2.83 ± 0.12 | 3.03 ± 0.084 |
| AIVCYILFELYKIKGRN [SRP72] | 2.01 ± 0.056 | 2.13 ± 0.059 | 2.69 ± 0.059 | 2.15 ± 0.054 |
| AFKKIDAITVKDVKAWA [COR1] | 2.06 ± 0.076 | 1.91 ± 0.072 | 1.83 ± 0.14 | 1.9 ± 0.039 |
| SGFYTFSLLDHHYRPDM [PRE1] |  | 3.1 ± 0.28 | 2.99 ± 0.13 |  |
| DTSTQAYEEEEENEDND [NUT1] | 3.24 ± 0.13 | 3.5 ± 0.17 | 3.54 ± 0.18 | 3.39 ± 0.12 |
